For three molecules, Kd results are on record in patent publication US10766960 (dated 2020).

Experiment in all cases: SPR
On the technique in general: Surface plasmon resonance follows binding to a sensor surface in real time, without labels.

One assay has as its target T1, FcgRIIa R (human, UniProt P12318).
T1 chain: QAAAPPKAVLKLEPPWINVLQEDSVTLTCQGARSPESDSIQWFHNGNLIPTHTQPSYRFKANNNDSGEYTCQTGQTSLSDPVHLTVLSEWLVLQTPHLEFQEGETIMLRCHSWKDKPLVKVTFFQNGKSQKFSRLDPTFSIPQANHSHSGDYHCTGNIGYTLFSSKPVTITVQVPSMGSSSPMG

A further assay concerns the target FcgRIIIa V (human, UniProt P08637).
The target of a further assay is T2, FcgRIIa H (human, UniProt P12318).
T2 chain: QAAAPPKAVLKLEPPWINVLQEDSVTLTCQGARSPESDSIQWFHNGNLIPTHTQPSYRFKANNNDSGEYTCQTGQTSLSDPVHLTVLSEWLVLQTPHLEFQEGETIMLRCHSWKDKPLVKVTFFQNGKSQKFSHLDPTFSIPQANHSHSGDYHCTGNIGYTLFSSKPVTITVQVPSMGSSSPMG

Another assay concerns the target T3, FcgRIIb (human, UniProt P31994).
T3 chain: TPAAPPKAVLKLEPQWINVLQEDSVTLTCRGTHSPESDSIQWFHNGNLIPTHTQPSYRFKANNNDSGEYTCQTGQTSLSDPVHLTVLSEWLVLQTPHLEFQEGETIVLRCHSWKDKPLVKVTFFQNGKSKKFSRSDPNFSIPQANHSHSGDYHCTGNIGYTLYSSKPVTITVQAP

In the next assay the target is T4, FcgRIa (human, UniProt P12314).
T4 chain: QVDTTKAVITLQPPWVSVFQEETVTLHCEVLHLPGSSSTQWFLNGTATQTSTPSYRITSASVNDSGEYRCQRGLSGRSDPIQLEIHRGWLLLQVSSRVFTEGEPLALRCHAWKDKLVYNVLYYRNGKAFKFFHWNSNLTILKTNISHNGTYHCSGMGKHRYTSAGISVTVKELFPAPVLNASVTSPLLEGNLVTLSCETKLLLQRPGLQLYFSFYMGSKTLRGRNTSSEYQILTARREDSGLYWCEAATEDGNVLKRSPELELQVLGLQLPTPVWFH

The target of the next assay is FcgRIIIa F (human, UniProt P08637).
Chain of FcgRIIIa F (P08637 17-208): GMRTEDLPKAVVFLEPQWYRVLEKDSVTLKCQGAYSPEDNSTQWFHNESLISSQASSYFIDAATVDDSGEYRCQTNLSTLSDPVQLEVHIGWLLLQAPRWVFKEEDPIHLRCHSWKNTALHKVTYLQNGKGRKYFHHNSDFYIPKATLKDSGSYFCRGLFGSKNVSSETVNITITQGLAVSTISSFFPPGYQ

Chain of FcgRIIIa V (P08637 17-208 F176V): as the sequence (P08637 17-208) above, with F160V counted along it

B1: H240-FA024/H240-FB001/L73-k0 (antibody)
chain 1: QDQLVQSGAEVKKPGASVKVSCKASGFNIKDTYIQWVRQAPGQGLEWMGRIDPLRKQTKYREKFEGRVTITADTSTNTAYMELSSLRSEDTAVYYCVRSGREFDYWGQGTLVTVSSASTKGPSVFPLAPSSKSTSGGTAALGCLVKDYFPEPVTVSWNSGALTSGVHTFPAVLQSSGLYSLSSVVTVPSSSLGTKTYTCNVNHKPSNTKVDKKVEPKSCDKTHTCPPCPAPEYYWGPSVFLFPPKPKDTLMISRTPEVTCVVVDVSDEEPKVKFNWYVDGVEVHNAKTKPREEQYNATYRVVSVLTVLHQDWLNGKEYKCKVSNKALPAPIEKTISKAKGQPREPQVYTLPPSRKEKTKNQVSLTCLVKGFYPSDIAVEWESNGQPENNYKTTPPVLDSDGSFFLYSKLTVDKSRWQQGNVFSCSVMHEALHNRYTQKSLSLSP
chain 2: QDQLVQSGAEVKKPGASVKVSCKASGFNIKDTYIQWVRQAPGQGLEWMGRIDPLRKQTKYREKFEGRVTITADTSTNTAYMELSSLRSEDTAVYYCVRSGREFDYWGQGTLVTVSSASTKGPSVFPLAPSSKSTSGGTAALGCLVKDYFPEPVTVSWNSGALTSGVHTFPAVLQSSGLYSLSSVVTVPSSSLGTQTYICNVNHKPSNTKVDKKVEPKSCDKTHTCPPCPAPELLGGPSVFLFPPKPKDTLMISRTPEVTCVVVDVSHEEPEVQFNWYVDGVEVHNAKTKPREEQYNSTYRVVSVLTVLHQDWLNGKEYKCKVSNDALPMPIEETISKAKGQPREPQVYTLPPSREEMTKNQVSLTCLVKGFYPSDIAVEWESNGQPENNYKTTPPVLDSDGSFFLYSKLTVDKSRWQQGNVFSCSVMHEALHNHYTQESLSLSP
chain 3: DIQMTQSPSSLSASVGDRVTITCRASQDIHKYIAWYQQKPGQAPRLLIQYTSTLQPGVPSRFSGSGSGTDYTFTISSLQPEDIATYYCLQYEQLRTFGGGTKVEIKRTVAAPSVFIFPPSDEQLKSGTASVVCLLNNFYPREAKVQWKVDNALQSGNSQESVTEQDSKDSTYSLSSTLTLSKADYEKHKVYACEVTHQGLSSPVTKSFNRGEC
For orientation: Kd means the constant that tells how readily two partners part at equilibrium. A lower Kd goes with tighter binding. Regarding B1, the Kd with FcgRIIa R came to 370 nM; with FcgRIIIa V, 1.9 nM; in the assay with FcgRIIa H, 110 nM; in the assay with FcgRIIb it was 2000 nM; with FcgRIa, 1.8 nM; in the assay with FcgRIIIa F it was 6.7 nM.

B2: H240-FA030/H240-FB001/L73-k0 (antibody)
chain 1: QDQLVQSGAEVKKPGASVKVSCKASGFNIKDTYIQWVRQAPGQGLEWMGRIDPLRKQTKYREKFEGRVTITADTSTNTAYMELSSLRSEDTAVYYCVRSGREFDYWGQGTLVTVSSASTKGPSVFPLAPSSKSTSGGTAALGCLVKDYFPEPVTVSWNSGALTSGVHTFPAVLQSSGLYSLSSVVTVPSSSLGTKTYTCNVNHKPSNTKVDKKVEPKSCDKTHTCPPCPAPEYYWGPSVFLFPPKPKDTLMISRTPEVTCVVVDVSDEEPKVKFNWYVDGVEVHNAKTKPREEQYNATYRVVSVLTVLHQDWLNGKEYKCKVSNKALPAPIEKTISKAKGQPREPQVYTLPPSRKEMTKNQVSLTCLVKGFYPSDIAVEWESNGQPENNYKTTPPVLDSDGSFFLYSKLTVDKSRWQQGNVFSCSVMHEALHNRYTQKSLSLSP
chain 2: QDQLVQSGAEVKKPGASVKVSCKASGFNIKDTYIQWVRQAPGQGLEWMGRIDPLRKQTKYREKFEGRVTITADTSTNTAYMELSSLRSEDTAVYYCVRSGREFDYWGQGTLVTVSSASTKGPSVFPLAPSSKSTSGGTAALGCLVKDYFPEPVTVSWNSGALTSGVHTFPAVLQSSGLYSLSSVVTVPSSSLGTQTYICNVNHKPSNTKVDKKVEPKSCDKTHTCPPCPAPELLGGPSVFLFPPKPKDTLMISRTPEVTCVVVDVSHEEPEVQFNWYVDGVEVHNAKTKPREEQYNSTYRVVSVLTVLHQDWLNGKEYKCKVSNDALPMPIEETISKAKGQPREPQVYTLPPSREEMTKNQVSLTCLVKGFYPSDIAVEWESNGQPENNYKTTPPVLDSDGSFFLYSKLTVDKSRWQQGNVFSCSVMHEALHNHYTQESLSLSP
chain 3: DIQMTQSPSSLSASVGDRVTITCRASQDIHKYIAWYQQKPGQAPRLLIQYTSTLQPGVPSRFSGSGSGTDYTFTISSLQPEDIATYYCLQYEQLRTFGGGTKVEIKRTVAAPSVFIFPPSDEQLKSGTASVVCLLNNFYPREAKVQWKVDNALQSGNSQESVTEQDSKDSTYSLSSTLTLSKADYEKHKVYACEVTHQGLSSPVTKSFNRGEC
As to B2, the Kd in the assay with FcgRIIa R was 440 nM; with FcgRIIIa V, 1.7 nM; in the assay with FcgRIIa H, 120 nM; with FcgRIIb it was 3300 nM; with FcgRIa it was 0.036 nM; with FcgRIIIa F it was 6.4 nM.

B3: H240-FA024/H240-FB084/L73-k0 (antibody)
chain 1: QDQLVQSGAEVKKPGASVKVSCKASGFNIKDTYIQWVRQAPGQGLEWMGRIDPLRKQTKYREKFEGRVTITADTSTNTAYMELSSLRSEDTAVYYCVRSGREFDYWGQGTLVTVSSASTKGPSVFPLAPSSKSTSGGTAALGCLVKDYFPEPVTVSWNSGALTSGVHTFPAVLQSSGLYSLSSVVTVPSSSLGTKTYTCNVNHKPSNTKVDKKVEPKSCDKTHTCPPCPAPEYYWGPSVFLFPPKPKDTLMISRTPEVTCVVVDVSDEEPKVKFNWYVDGVEVHNAKTKPREEQYNATYRVVSVLTVLHQDWLNGKEYKCKVSNKALPAPIEKTISKAKGQPREPQVYTLPPSRKEKTKNQVSLTCLVKGFYPSDIAVEWESNGQPENNYKTTPPVLDSDGSFFLYSKLTVDKSRWQQGNVFSCSVMHEALHNRYTQKSLSLSP
chain 2: QDQLVQSGAEVKKPGASVKVSCKASGFNIKDTYIQWVRQAPGQGLEWMGRIDPLRKQTKYREKFEGRVTITADTSTNTAYMELSSLRSEDTAVYYCVRSGREFDYWGQGTLVTVSSASTKGPSVFPLAPSSKSTSESTAALGCLVEDYFPEPVTVSWNSGALTSGVHTFPAVLQSSGLYSLSSVVTVPSSNFGTQTYTCNVDHKPSNTKVDKTVEPKSCDKTHTCPPCPAPELLGGPSVFLFPPKPKDTLMISRTPEVTCVVVDVSHEEPEVQFNWYVDGVEVHNAETKPREEQYNSTYRVVSVLTVLHQDWLNGKEYKCKVSNDALPMPIEETISKAKGQPREPQVYTLPPSREEMTKNQVSLTCLVKGFYPSDIAVEWESEGQPENNYKTTPPVLDSDGSFFLYSKLTVDKSRWQQGNVFSCSVMHEALHNHYTQESLSLSP
chain 3: DIQMTQSPSSLSASVGDRVTITCRASQDIHKYIAWYQQKPGQAPRLLIQYTSTLQPGVPSRFSGSGSGTDYTFTISSLQPEDIATYYCLQYEQLRTFGGGTKVEIKRTVAAPSVFIFPPSDEQLKSGTASVVCLLNNFYPREAKVQWKVDNALQSGNSQESVTEQDSKDSTYSLSSTLTLSKADYEKHKVYACEVTHQGLSSPVTKSFNRGEC
With B3, the dissociation constant (Kd) with FcgRIIa R came out at 250 nM; in the assay with FcgRIIIa V, 1.2 nM; with FcgRIIa H, 79 nM; with FcgRIIb, 1500 nM; with FcgRIa, 0.095 nM; in the assay with FcgRIIIa F it was 4.6 nM.
